Measurements from paper PMC11960969, “Mdga2 deficiency leads to an aberrant activation of BDNF/TrkB signaling that underlies autism-relevant synaptic and behavioral changes in mice” (PLOS Biology, 2025).

Tested on: cell membrane localization in HeLa cells and mouse primary neurons
Test: Immunostaining of membrane localization of MDGA2, ΔMAM or V930I in transfected cells
Type: cell-based
Conditions: HeLa cells transfected 24 h, S3E Fig
From the text: Fig 7 The autism spectrum disorder (ASD)-associated MDGA2 V930I mutation impairs the MDGA2-TrkB interaction and MDGA2’s inhibitory effect on the tyrosine kinase B (TrkB) signaling. (A) Schematic depiction of the WT human MDGA2 and its V930I mutation constructs that are tagged with GFP. (B, C) HeLa cells (B) and mouse primary neurons (C) transfected with MDGA2 (green) or V930I (green) were immunostained with an antibody against the plasma membrane protein ATP1A1 (red) and then observed by confocal microscopy. Scale bars = 10 μm. (D) Cell surface expression of WT MDGA2 or V930I in transfected HeLa cells was determined by surface biotinylation assays. Biotinylated (cell surface) protein levels were quantified by densitometry and normalized to total protein levels for comparison (WT MDGA2 levels were set to one arbitrary unit). n = 4 experimental replicates. (E) Mouse primary neurons were transfected with MDGA2, V930I, or ΔMAM. […] Immunoprecipitated protein levels were quantified by densitometry, normalized to respective inputs, and compared to those transfected with MDGA2 (set to one arbitrary units). n = 4 experimental replicates. […] Levels of phosphorylated proteins were quantified by densitometry, normalized to respective total protein levels and compared to controls (set to one arbitrary units). n = 6 experimental replicates. […]

B1: MDGA2-ΔMAM: truncated form of MDGA2 lacking its MAM domain (protein)
chain: PPTVRIVHSGLACNIEEERYSERVYTIREGETLELTCLVTGHPRPQIRWTKTAGSASDRFQDSSVFNETLRITNIQRHQGGRYYCKAENGLGSPAIKSIRVDVYYLDDPVVTVHQSIGEAKEQFYYERTVFLRCVANSNPPVRYSWRRGQEVLLQGSDKGVEIYEPFFTQGETKILKLKNLRPQDYANYSCIASVRNVCNIPDKMVSFRLSNKTASPSIKLLVDDPIVVNPGEAITLVCVTTGGEPAPSLTWVRSFGTLPEKTVLNGGTLTIPAITSDDAGTYSCIANNNVGNPAKKSTNIIVRALKKGRFWITPDPYHKDDNIQIGREVKISCQVEAVPSEELTFSWFKNGRPLRSSERMVITQTDPDVSPGTTNLDIIDLKFTDFGTYTCVASLKGGGISDISIDVNISSSTVPPNLTVPQEKSPLVTREGDTIELQCQVTGKPKPIILWSRADKEVAMPDGSMQMESYDGTLRIVNVSREMSGMYRCQTSQYNGFNVKPREALVQLIVQYPPAVEPAFLEIRQGQDRSVTMSCRVLRAYPIRVLTYEWRLGNKLLRTGQFDSQEYTEYAVKSLSNENYGVYNCSIINEAGAGRCSFLVTGKAYAPEFYYDTYNPVWQNRHRVYSYSLQWTQMNPDAVDRIVAYRLGIRQAGQQRWWEQEIKINGNIQKGELITYNLTELIKPEAYEVRLTPLTKFGEGDSTIRVIKYSAPVNPHLREQDLATKNSVD
modifications: left off: GFP, end not stated, kept
notes: truncated form of MDGA2 lacking its MAM domain
For B1, which cell membrane localization is on record?
The cell membrane localization was “no effect on its cell membrane localization”.
